# Measured values from patent publication US20050037969A1 (ARBOR VITA, published 2005).
# Ends that are not written are not given here. * marks the point of attachment. Biotin = O=C1N[C@H]2[C@H](CS[C@H]2CCCCC(=O)*)N1
# T1: GST-CASK PDZ domain fusion protein (Homo sapiens, UniProt O14936 486-575)
# T1 construct: also called Homo sapiens CASK protein
# T1 sequence: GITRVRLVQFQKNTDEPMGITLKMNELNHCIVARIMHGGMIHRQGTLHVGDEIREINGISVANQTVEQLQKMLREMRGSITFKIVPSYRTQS
# T2: GST-TAX-IP43 PDZ domain fusion protein (human, UniProt Q13884 109-180)
# T2 construct: also called TAX43; not shown: glutathione S-transferase encoded by vector pGEX-3X (Pharmacia)
# T2 sequence: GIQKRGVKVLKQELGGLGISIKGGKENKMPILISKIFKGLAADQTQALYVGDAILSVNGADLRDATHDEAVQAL
# T3: GST-PDZK1 fusion protein (PDZ domains 2-4) (Homo sapiens, UniProt Q5T2W1 134-457)
# T3 construct: not shown: glutathione S-transferase encoded by vector pGEX-3X (Pharmacia)
# T3 sequence: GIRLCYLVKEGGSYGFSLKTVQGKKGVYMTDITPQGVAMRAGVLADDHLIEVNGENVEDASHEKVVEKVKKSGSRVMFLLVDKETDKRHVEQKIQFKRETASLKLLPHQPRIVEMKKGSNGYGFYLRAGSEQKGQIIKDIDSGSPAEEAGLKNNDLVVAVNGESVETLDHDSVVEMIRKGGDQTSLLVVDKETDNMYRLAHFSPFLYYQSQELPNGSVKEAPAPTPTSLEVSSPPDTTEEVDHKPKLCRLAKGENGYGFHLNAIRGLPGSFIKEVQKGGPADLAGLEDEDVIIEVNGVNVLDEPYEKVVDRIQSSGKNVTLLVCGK
# T4: GST-DLG5 (p-dlg) PDZ domain fusion protein (Human, UniProt Q8TDM6 1343-1583)
# T4 construct: also called Human discs large protein p-dlg; not shown: glutathione S-transferase encoded by vector pGEX-3X (Pharmacia)
# T4 sequence: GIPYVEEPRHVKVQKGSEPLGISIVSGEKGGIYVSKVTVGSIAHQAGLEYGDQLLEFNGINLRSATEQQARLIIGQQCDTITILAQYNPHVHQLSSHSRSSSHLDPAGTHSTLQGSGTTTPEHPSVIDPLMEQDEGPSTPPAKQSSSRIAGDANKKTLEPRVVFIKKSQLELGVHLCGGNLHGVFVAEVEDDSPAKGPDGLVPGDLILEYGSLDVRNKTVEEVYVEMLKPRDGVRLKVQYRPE
# T5: GST-mouse syntenin fusion protein (Mus musculus, UniProt O08992 108-286)
# T5 construct: also called Mus musculus Syntenin; not shown: glutathione S-transferase encoded by vector pGEX-3X (Pharmacia)
# T5 chain: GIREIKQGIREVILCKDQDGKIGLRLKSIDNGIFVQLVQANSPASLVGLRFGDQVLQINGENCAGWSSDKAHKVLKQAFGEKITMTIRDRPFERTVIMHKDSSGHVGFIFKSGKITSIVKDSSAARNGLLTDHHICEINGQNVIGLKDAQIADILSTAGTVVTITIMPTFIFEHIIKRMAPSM
# T6: GST-DVL1 PDZ domain fusion protein (human, UniProt O14640 247-339)
# T6 construct: also called human dishevelled segment polarity protein homolog; not shown: glutathione S-transferase encoded by vector pGEX-3X (Pharmacia)
# T6 sequence: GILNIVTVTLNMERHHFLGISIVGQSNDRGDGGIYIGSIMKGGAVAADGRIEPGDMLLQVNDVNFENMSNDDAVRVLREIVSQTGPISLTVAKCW
# T7: KIAA0807 (PDZ domain)-GST fusion protein (human, UniProt Q6P0Q8 1104-1192)
# T7 construct: also called K807; KIAA807; not shown: glutathione S-transferase encoded by vector pGEX-3X (Pharmacia)
# T7 sequence: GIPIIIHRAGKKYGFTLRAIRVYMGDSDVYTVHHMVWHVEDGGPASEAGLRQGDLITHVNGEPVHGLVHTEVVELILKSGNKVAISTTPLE
# T8: X11β PDZ-GST fusion protein (Rattus norvegicus (Rat), UniProt O35431 560-745)
# T8 construct: Order of GST and PDZ part and limits not seen in the excerpts
# T8 chain: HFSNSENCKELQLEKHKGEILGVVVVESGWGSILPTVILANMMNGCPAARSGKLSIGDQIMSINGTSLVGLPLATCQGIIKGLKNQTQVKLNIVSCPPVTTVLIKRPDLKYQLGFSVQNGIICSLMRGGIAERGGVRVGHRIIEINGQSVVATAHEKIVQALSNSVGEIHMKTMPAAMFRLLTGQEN
# T9: TAX-IP2L PDZ-GST fusion protein (Homo sapiens (Human), UniProt Q8TF64 107-197)
# T9 construct: Order of GST and PDZ part and limits not seen in the excerpts
# T9 sequence: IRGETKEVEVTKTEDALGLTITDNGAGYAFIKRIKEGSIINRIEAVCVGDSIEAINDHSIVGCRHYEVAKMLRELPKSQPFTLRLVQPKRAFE
# T10: TAX-IP33 PDZ-GST fusion protein (Homo sapiens (Human), UniProt O14910 103-193)
# T10 construct: Order of GST and PDZ part and limits not seen in the excerpts
# T10 sequence: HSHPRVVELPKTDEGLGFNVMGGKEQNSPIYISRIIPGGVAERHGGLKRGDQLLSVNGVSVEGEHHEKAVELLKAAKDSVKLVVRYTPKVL
# T11: MINT3 PDZ-GST fusion protein
# T11 construct: Order of GST and PDZ part and limits not seen in the excerpts
# T11 chain: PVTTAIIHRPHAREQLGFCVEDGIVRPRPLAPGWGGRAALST
# T12: K559 PDZ-GST fusion protein (Homo sapiens (Human), UniProt Q9Y6V0 4489-4593)
# T12 construct: Order of GST and PDZ part and limits not seen in the excerpts
# T12 sequence: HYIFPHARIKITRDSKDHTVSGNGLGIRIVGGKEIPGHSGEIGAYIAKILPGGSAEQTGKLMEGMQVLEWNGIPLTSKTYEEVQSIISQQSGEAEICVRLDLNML
# B1: CC CKR-4 C-terminal peptide AA44L (peptide)
# peptide: Biotin-DTPSSSYTQSTMDHDLHDAL
# notes: Only the last four residues are seen in the excerpts
# B2: CC CKR-1R C-terminal peptide AA41L (peptide)
# peptide: Biotin-LERVSSTSPSTGEHELSAGF
# notes: as for B1
# B3: CC CKR-2 C-terminal peptide AA42L (peptide)
# peptide: Biotin-GKGKSIGRAPEASLQDKEGA
# notes: as for B1
# Biological target: T1, GST-CASK PDZ domain fusion protein
# Test: A/G assays
row,binding result,Binder
1,no binding,"Biotin-ARHRVTSYTSSSVNVSSNL [CDW128A (IL8RA) C-terminal peptide AA29.1L, biotinylated]"
2,no binding,B1
3,no binding,B2
4,no binding,B3
5,no binding,"Biotin-SPQPDSTDNDDYDDISAA [CD6 C-terminal peptide AA6L, biotinylated]"
6,no binding,"Biotin-TSGTGHNQTRALRASESGI (also called CD97 (CD55L)) [CD97 C-terminal peptide AA14L, biotinylated]"

# Biological target: T2, GST-TAX-IP43 PDZ domain fusion protein
# Test: A/G assays
row,binding result,Binder
1,no binding,"Biotin-ARHRVTSYTSSSVNVSSNL [CDW128A (IL8RA) C-terminal peptide AA29.1L, biotinylated]"
2,no binding,B1
3,no binding,B2
4,no binding,B3
5,no binding,"Biotin-SPQPDSTDNDDYDDISAA [CD6 C-terminal peptide AA6L, biotinylated]"
6,no binding,"Biotin-TSGTGHNQTRALRASESGI (also called CD97 (CD55L)) [CD97 C-terminal peptide AA14L, biotinylated]"

# Biological target: T3, GST-PDZK1 fusion protein (PDZ domains …)
# Test: A/G assays
row,binding result,Binder
1,no binding,"Biotin-ARHRVTSYTSSSVNVSSNL [CDW128A (IL8RA) C-terminal peptide AA29.1L, biotinylated]"
2,no binding,B1
3,no binding,B2
4,no binding,B3
5,no binding,"Biotin-SPQPDSTDNDDYDDISAA [CD6 C-terminal peptide AA6L, biotinylated]"
6,no binding,"Biotin-TSGTGHNQTRALRASESGI (also called CD97 (CD55L)) [CD97 C-terminal peptide AA14L, biotinylated]"

# Biological target: T4, GST-DLG5 (p-dlg) PDZ domain fusion …
# Test: A/G assays
row,binding result,Binder
1,no binding,"Biotin-ARHRVTSYTSSSVNVSSNL [CDW128A (IL8RA) C-terminal peptide AA29.1L, biotinylated]"
2,no binding,B1
3,no binding,B2
4,no binding,B3
5,no binding,"Biotin-SPQPDSTDNDDYDDISAA [CD6 C-terminal peptide AA6L, biotinylated]"
6,no binding,"Biotin-TSGTGHNQTRALRASESGI (also called CD97 (CD55L)) [CD97 C-terminal peptide AA14L, biotinylated]"

# Biological target: T5, GST-mouse syntenin fusion protein
# Test: A/G assays
row,binding result,Binder
1,no binding,"Biotin-ARHRVTSYTSSSVNVSSNL [CDW128A (IL8RA) C-terminal peptide AA29.1L, biotinylated]"
2,no binding,B1
3,no binding,B2
4,no binding,B3
5,no binding,"Biotin-SPQPDSTDNDDYDDISAA [CD6 C-terminal peptide AA6L, biotinylated]"
6,no binding,"Biotin-TSGTGHNQTRALRASESGI (also called CD97 (CD55L)) [CD97 C-terminal peptide AA14L, biotinylated]"

# Biological target: T6, GST-DVL1 PDZ domain fusion protein
# Test: A/G assays
row,binding result,Binder
1,no binding,"Biotin-ARHRVTSYTSSSVNVSSNL [CDW128A (IL8RA) C-terminal peptide AA29.1L, biotinylated]"
2,no binding,B1
3,no binding,B2
4,no binding,B3
5,no binding,"Biotin-SPQPDSTDNDDYDDISAA [CD6 C-terminal peptide AA6L, biotinylated]"
6,no binding,"Biotin-TSGTGHNQTRALRASESGI (also called CD97 (CD55L)) [CD97 C-terminal peptide AA14L, biotinylated]"

# Biological target: T7, KIAA0807 (PDZ domain)-GST fusion protein
# Test: A/G assays
row,binding result,Binder
1,no binding,"Biotin-ARHRVTSYTSSSVNVSSNL [CDW128A (IL8RA) C-terminal peptide AA29.1L, biotinylated]"
2,no binding,B1
3,no binding,B2
4,no binding,B3
5,no binding,"Biotin-SPQPDSTDNDDYDDISAA [CD6 C-terminal peptide AA6L, biotinylated]"
6,no binding,"Biotin-TSGTGHNQTRALRASESGI (also called CD97 (CD55L)) [CD97 C-terminal peptide AA14L, biotinylated]"

# Biological target: T8, X11β PDZ-GST fusion protein
# Test: A/G assays
row,binding result,Binder
1,no binding,"Biotin-ARHRVTSYTSSSVNVSSNL [CDW128A (IL8RA) C-terminal peptide AA29.1L, biotinylated]"
2,no binding,B1
3,no binding,B2
4,no binding,B3
5,no binding,"Biotin-SPQPDSTDNDDYDDISAA [CD6 C-terminal peptide AA6L, biotinylated]"
6,no binding,"Biotin-TSGTGHNQTRALRASESGI (also called CD97 (CD55L)) [CD97 C-terminal peptide AA14L, biotinylated]"

# Biological target: T9, TAX-IP2L PDZ-GST fusion protein
# Test: A/G assays
row,binding result,Binder
1,no binding,"Biotin-ARHRVTSYTSSSVNVSSNL [CDW128A (IL8RA) C-terminal peptide AA29.1L, biotinylated]"
2,no binding,B1
3,no binding,B2
4,no binding,B3
5,no binding,"Biotin-SPQPDSTDNDDYDDISAA [CD6 C-terminal peptide AA6L, biotinylated]"
6,no binding,"Biotin-TSGTGHNQTRALRASESGI (also called CD97 (CD55L)) [CD97 C-terminal peptide AA14L, biotinylated]"

# Biological target: T10, TAX-IP33 PDZ-GST fusion protein
# Test: A/G assays
row,binding result,Binder
1,no binding,"Biotin-ARHRVTSYTSSSVNVSSNL [CDW128A (IL8RA) C-terminal peptide AA29.1L, biotinylated]"
2,no binding,B1
3,no binding,B2
4,no binding,B3
5,no binding,"Biotin-SPQPDSTDNDDYDDISAA [CD6 C-terminal peptide AA6L, biotinylated]"
6,no binding,"Biotin-TSGTGHNQTRALRASESGI (also called CD97 (CD55L)) [CD97 C-terminal peptide AA14L, biotinylated]"

# Biological target: T11, MINT3 PDZ-GST fusion protein
# Test: A/G assays
row,binding result,Binder
1,no binding,"Biotin-ARHRVTSYTSSSVNVSSNL [CDW128A (IL8RA) C-terminal peptide AA29.1L, biotinylated]"
2,no binding,B1
3,no binding,B2
4,no binding,B3
5,no binding,"Biotin-SPQPDSTDNDDYDDISAA [CD6 C-terminal peptide AA6L, biotinylated]"
6,no binding,"Biotin-TSGTGHNQTRALRASESGI (also called CD97 (CD55L)) [CD97 C-terminal peptide AA14L, biotinylated]"

# Biological target: T12, K559 PDZ-GST fusion protein
# Test: A/G assays
row,binding result,Binder
1,no binding,"Biotin-ARHRVTSYTSSSVNVSSNL [CDW128A (IL8RA) C-terminal peptide AA29.1L, biotinylated]"
2,no binding,B1
3,no binding,B2
4,no binding,B3
5,no binding,"Biotin-SPQPDSTDNDDYDDISAA [CD6 C-terminal peptide AA6L, biotinylated]"
6,no binding,"Biotin-TSGTGHNQTRALRASESGI (also called CD97 (CD55L)) [CD97 C-terminal peptide AA14L, biotinylated]"

# Biological target: T13, K316 PDZ-GST fusion protein (Homo sapiens (Human), UniProt Q14CM0 72-159)
# T13 construct: Order of GST and PDZ part and limits not seen in the excerpts
# Test: A/G assays
# T13 sequence (Q14CM0 72-159 limits assumed): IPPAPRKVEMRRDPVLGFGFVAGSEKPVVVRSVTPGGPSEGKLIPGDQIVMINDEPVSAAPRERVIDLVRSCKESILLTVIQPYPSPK
row,binding result,Binder
1,no binding,"Biotin-ARHRVTSYTSSSVNVSSNL [CDW128A (IL8RA) C-terminal peptide AA29.1L, biotinylated]"
2,no binding,B1
3,no binding,B2
4,no binding,B3
5,no binding,"Biotin-SPQPDSTDNDDYDDISAA [CD6 C-terminal peptide AA6L, biotinylated]"
6,no binding,"Biotin-TSGTGHNQTRALRASESGI (also called CD97 (CD55L)) [CD97 C-terminal peptide AA14L, biotinylated]"
